Laboratory results: paper PMC11140114

Biological target: recombinant human dynamin-related protein 1 (Drp1), isoform 1 (human) (UniProt O00429)
Sequence (O00429 whole entry, canonical isoform): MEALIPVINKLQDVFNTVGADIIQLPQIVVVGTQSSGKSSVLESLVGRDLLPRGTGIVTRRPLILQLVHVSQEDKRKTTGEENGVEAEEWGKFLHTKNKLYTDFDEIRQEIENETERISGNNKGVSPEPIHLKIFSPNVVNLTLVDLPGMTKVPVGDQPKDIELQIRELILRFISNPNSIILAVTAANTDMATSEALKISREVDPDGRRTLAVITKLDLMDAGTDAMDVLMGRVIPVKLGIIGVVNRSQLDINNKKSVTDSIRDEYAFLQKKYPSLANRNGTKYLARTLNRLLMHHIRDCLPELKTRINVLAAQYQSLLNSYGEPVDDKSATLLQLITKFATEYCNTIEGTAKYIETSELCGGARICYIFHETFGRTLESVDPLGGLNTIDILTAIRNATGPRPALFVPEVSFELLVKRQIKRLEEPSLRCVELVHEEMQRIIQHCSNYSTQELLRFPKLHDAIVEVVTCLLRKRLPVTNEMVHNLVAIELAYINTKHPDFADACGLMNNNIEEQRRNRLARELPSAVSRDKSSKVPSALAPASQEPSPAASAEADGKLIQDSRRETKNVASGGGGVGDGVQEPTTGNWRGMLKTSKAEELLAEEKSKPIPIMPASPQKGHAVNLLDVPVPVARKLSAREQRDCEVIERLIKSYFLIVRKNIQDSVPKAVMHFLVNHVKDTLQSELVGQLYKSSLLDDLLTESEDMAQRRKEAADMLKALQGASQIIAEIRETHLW

B1: Drp1-specific nanobody D63 (VHH)
VHH: QVQLVESGGDLVQPGGSLKLSCAVSGVSDSLSSFYLMAWHRQAPGKQREMIADIVSGKATYADSVKGRFTISRDNAENTAYLQMNSLKPEDTAVYYCNVLIQNRSTFQSYWGQGTQVTVSS
  GTPase rate of 100 nM Drp1 with 0, 10, 100 or 1,000 nM Nb (continuous regenerative assay, 37°C); factor of increase after addition of a 10-fold molar excess of D63: 1.7 fold
